Assay results published in patent publication US20180055925A1 (UNITED STATES OF AMERICA AS REPRESENTED BY THE SECRETARY …, published 2018).

Target: T1, SpoIVA^AF488 (His6-tagged cysteine-less SpoIVA variant, C98S, with a single engineered N-terminal cysteine, … (Bacillus subtilis, UniProt P35149 1-492, Alexa Fluor 488 C5-maleimide on the single engineered cysteine at the N-terminus (second residue)))
T1 construct: SpoIVA polymerizes in the presence of ATP; also called SpoIVA^A488
T1 sequence: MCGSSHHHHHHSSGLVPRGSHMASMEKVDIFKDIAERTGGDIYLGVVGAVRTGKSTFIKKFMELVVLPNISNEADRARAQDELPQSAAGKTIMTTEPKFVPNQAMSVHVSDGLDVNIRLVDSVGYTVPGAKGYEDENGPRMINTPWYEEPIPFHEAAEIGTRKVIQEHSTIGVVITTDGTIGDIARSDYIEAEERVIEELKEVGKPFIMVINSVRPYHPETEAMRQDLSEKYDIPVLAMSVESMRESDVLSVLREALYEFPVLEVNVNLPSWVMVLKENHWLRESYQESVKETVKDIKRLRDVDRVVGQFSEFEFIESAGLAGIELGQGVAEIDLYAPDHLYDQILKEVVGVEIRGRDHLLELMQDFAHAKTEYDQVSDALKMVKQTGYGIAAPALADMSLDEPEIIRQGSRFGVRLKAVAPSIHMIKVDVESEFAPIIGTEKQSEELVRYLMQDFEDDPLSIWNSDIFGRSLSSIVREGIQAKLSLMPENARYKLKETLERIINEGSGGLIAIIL
Assay: fluorescence microscopy of SpoVM-coated SSLBs incubated with increasing SpoIVA^AF488
Method: SpoVM-coated SSLBs were collected by centrifugation at 13,000×g for 1 minute, and then were incubated with varying concentrations of SpoIVA^AF488 in a final volume of 100 μL buffer A containing 10 mM MgCl₂ and 4 mM ATP, overnight at room temperature with gentle inversion. SSHEL particles were collected by centrifugation and resuspended in 100 μL buffer A for microscopy. For competition assays, SpoVM-SSLBs were incubated with 0.006 μM SpoIVA^A488 in the presence or absence of 4 mM ATP in buffer A containing 10 mM MgCl₂. The fluorescent SSLBs were collected by centrifugation, and resuspended with 100 μL buffer A containing 5 μM unlabeled SpoIVA. 5 μL aliquots were taken at indicated time points for microscopy.
To test this model of basement layer assembly in vitro, spherical supported lipid bilayers (SSLBs) were constructed by coating 2 μm-diameter silica beads with a phospholipid bilayer (Bayerl and Bloom, Biophys J 58, 357-362 (1990) and Gopalakrishnan and Rouiller, Langmuir 25, 5455-5458 (2009)) to mimic the surface of the forespore. […] The SpoVM-coated SSLBs were then incubated with increasing concentrations of SpoIVA^AF488 and measured its adsorption using fluorescence microscopy (FIG. 1C). […] At higher concentrations of SpoIVA^AF488 the heterogeneity in fluorescence between SSLBs was reduced and SpoIVA^AF488 adsorption approached saturation (FIG. 1C, 1E).

binding result: binds
B1: SpoVM (synthesized 26 amino acid peptide, adsorbed on spherical supported lipid bilayers) (peptide)
peptide: MKFYTIKLPKFLGGIVRAMLGSFRKD
notes: also called SpoVM peptide; SpoVM-coated SSLBs
